The text below walks through data of patent US20230056486.

The test system of series [1] is T1, (GR)10 dipeptide repeat peptide.
T1 sequence: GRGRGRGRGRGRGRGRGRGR

For series [2], the system named is T2, Biotin-(PEG)4-(GR)10.
T2 sequence: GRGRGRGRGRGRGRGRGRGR

Several values for one entry are separate records, joined by “and”; a condition that tells them apart may be missing. Identical values can stand only once.

Chain of Immobilized TPCK-trypsin on agarose resin; ThermoFisher Cat #20230 (P00760 24-246): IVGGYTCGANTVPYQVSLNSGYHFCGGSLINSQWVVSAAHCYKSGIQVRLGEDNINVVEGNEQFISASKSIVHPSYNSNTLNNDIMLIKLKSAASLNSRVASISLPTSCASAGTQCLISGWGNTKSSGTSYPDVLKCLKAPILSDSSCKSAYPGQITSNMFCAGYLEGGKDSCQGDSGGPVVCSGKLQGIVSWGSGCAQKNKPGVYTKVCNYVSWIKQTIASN

In the case of elastase, in series [1], the (GR)10 concentration left at 0 min (LC/MS; 50 µM start; TFA added before enzyme) is 53.8 µM and 41.6 µM; the (GR)10 concentration left at 5 min (LC/MS; 50 µM start) is 52.6 µM and 50.5 µM; the (GR)10 concentration left at 10 min (LC/MS; 50 µM start) was 52.5 µM and 37.8 µM; the (GR)10 concentration left at 30 min (LC/MS; 50 µM start) was 43.6 µM and 21.1 µM. Besides, in series [1], the (GR)10 concentration left at 60 min (LC/MS; 50 µM start) was 35.3 µM and 12.2 µM; the (GR)10 left in CSF; Elastase-Immobilized-5 min reaction (LC/MS; 200 µM (GR)10 in human CSF) (normalized µM) was -0; the (GR)10 left in CSF; Elastase-Immobilized-605 min reaction [as printed; 60 min meant] (LC/MS; 200 µM (GR)10 in human CSF) (normalized µM) is -0; the (GR)10 left; Elastase-Immobilized-5 min reaction (LC/MS) (µM (normalized to GR concentration)) was -0. In series [1], this substance displayed a (GR)10 left; Elastase-immobilized-60 min reaction (LC/MS) (µM (normalized to GR concentration)) of -0, a (GR)10 left; Elastase-in solution-5 min reaction (LC/MS) of 213 µM, a (GR)10 left; Elastase-in solution-60 min reaction (LC/MS) (µM (normalized to GR concentration)) of 21.6 and a (GR)10 left; Elastase-resin wash from 5 min reaction (LC/MS) (µM (normalized to GR concentration)) of -0. In addition, in series [1], the (GR)10 left; Elastase-resin wash from 60 min reaction (LC/MS) (µM (normalized to GR concentration)) is -0 and the “proteolytic activity on (GR)10 of immobilized enzyme after storage at 4° C. for over 2 months (LC/MS)” value is “agarose resin having immobilized elastase did not exhibit substantial (GR)10 proteolytic activity at either 5 minute or 60 minute treatment times”. Moreover, the “digestion of biotin-(PEG)4-(GR)10 after 5 minutes, immobilized enzyme (LC/MS)” value (from here on “digestion … immobilized enzyme (LC/MS)”) in series [2] was “over 90% digestion of biotin-(PEG)4-(GR)10 after only 5 minutes of incubation time”.
Consider “thrombin (activated by thermolysin, quenched by EDTA)”, for which, in series [1], the (GR)10 concentration left at 0 min (LC/MS; 50 µM start; TFA added before enzyme) was 37.7 µM and 52 µM; the (GR)10 concentration left at 5 min (LC/MS; 50 µM start) is 42.9 µM and 54.8 µM; the (GR)10 concentration left at 10 min (LC/MS; 50 µM start) was 46.7 µM and 59.4 µM; the (GR)10 concentration left at 30 min (LC/MS; 50 µM start) was 49.1 µM and 48.6 µM. In series [1], the (GR)10 concentration left at 60 min (LC/MS; 50 µM start) was 56.2 µM and 55.2 µM; the (GR)10 concentration left at 120 min (LC/MS; 50 µM start) was 45.3 µM and 48.7 µM.
On to “Immobilized TPCK-trypsin on agarose resin; ThermoFisher Cat #20230”, for which, in series [1], the (GR)10 concentration left at 0 min (LC/MS; 50 µM start) is 68.4 µM and 32.7 µM; the (GR)10 concentration left at 10 min (LC/MS; 50 µM start) was 2.1 µM and 1.6 µM; the (GR)10 concentration left at 30 min (LC/MS; 50 µM start) is 0.6 µM and 0.9 µM; the (GR)10 concentration left at 120 min (LC/MS; 50 µM start) was 0.1 µM. Besides, in series [1], the (GR)10 left in CSF; Commercial Trypsin-Immobilized-5 min reaction (LC/MS; 200 µM (GR)10 in human CSF) (normalized µM) is -0, the (GR)10 left in CSF; Commercial Trypsin-Immobilized-605 min reaction [as printed; 60 min meant] (LC/MS; 200 µM (GR)10 in human CSF) (normalized µM) is -0, the (GR)10 left; Commercial Trypsin-Immobilized-5 min reaction (LC/MS) came out at 0 µM and the (GR)10 left; Commercial Trypsin-immobilized-60 min reaction (LC/MS) came out at 0 µM. In series [1], the (GR)10 left; Commercial Trypsin-resin wash from 5 min reaction (LC/MS) worked out at 0 µM, the (GR)10 left; Commercial Trypsin-resin wash from 60 min reaction (LC/MS) came out at 0 µM and the “digestion of (GR)10 to shorter GR repeats (LC/MS)” value is “Immobilized trypsin at 6.25 TAME Units digests (GR)10 to almost exclusively (GR)1 in 10 to 30 minutes”. The “digestion … immobilized enzyme (LC/MS)” value in series [2] is listed as “over 90% digestion of biotin-(PEG)4-(GR)10 after only 5 minutes of incubation time”.
Factor Xa: in series [1], the (GR)10 concentration left at 0 min (LC/MS; 50 µM start; TRIS buffer; TFA added before enzyme) is 33.1 µM and 31 µM; the (GR)10 concentration left at 5 min (LC/MS; 50 µM start; TRIS buffer) was 35 µM and 23.5 µM; the (GR)10 concentration left at 10 min (LC/MS; 50 µM start; TRIS buffer) is 19.4 µM and 13.6 µM.
Consider trypsin, for which, in series [1], the (GR)10 concentration left at 0 min (LC/MS; 50 µM start; TFA added before enzyme) was 52.8 µM and 48.9 µM; the (GR)10 concentration left at 5 min (LC/MS; 50 µM start) was 2.2 µM and 2 µM; the “(GR)10 concentration left at 10 min (LC/MS; 50 µM start)” value is on record as “BLQ”; the “(GR)10 concentration left at 30 min (LC/MS; 50 µM start)” value is given as “BLQ”. For the same substance, in series [1], the “(GR)10 concentration left at 60 min (LC/MS; 50 µM start)” value was “BLQ”, the “(GR)10 concentration left at 120 min (LC/MS; 50 µM start)” value is recorded as “BLQ”, the (GR)10 left in CSF; Trypsin-Immobilized-5 min reaction (LC/MS; 200 µM (GR)10 in human CSF) came to 0 µM and the (GR)10 left in CSF; Trypsin-Immobilized-60 min reaction (LC/MS; 200 µM (GR)10 in human CSF) (normalized µM) was -0. In series [1], this substance displayed a (GR)10 left; Trypsin-Immobilized-5 min reaction (LC/MS) of 0 µM, a (GR)10 left; Trypsin-immobilized-60 min reaction (LC/MS) of 0 µM, a (GR)10 left; Trypsin-in solution-5 min reaction (LC/MS) of 0 µM and a (GR)10 left; Trypsin-in solution-60 min reaction (LC/MS) of 0 µM. In series [1], the (GR)10 left; Trypsin-resin wash from 5 min reaction (LC/MS) was determined as 6.6 µM; the (GR)10 left; Trypsin-resin wash from 60 min reaction (LC/MS) stood at 0 µM; the “conversion of (GR)10 to shorter GR repeats (LC/MS)” value is “Almost complete conversion to (GR)1 and (GR)2 was observed in 5 to 10 min using either 2.5 or 10 µg/mL of trypsin for concentrations 50 µM of (GR)10”; the “proteolytic activity on (GR)10 of immobilized enzyme after storage at 4° C. for over 2 months (LC/MS)” value is “agarose resin having immobilized trypsin exhibited proteolytic activity after storage at 4 °C for over 2 months”. Moreover, the “digestion … immobilized enzyme (LC/MS)” value in series [2] is “over 90% digestion of biotin-(PEG)4-(GR)10 after only 5 minutes of incubation time”.
On to Kallikrein 6 (neurosin), autoactivated, for which, in series [1], the (GR)10 concentration left at 0 min (LC/MS; 50 µM start; TFA added before enzyme) is 27.8 µM and 54.7 µM; the (GR)10 concentration left at 5 min (LC/MS; 50 µM start) was 42.2 µM and 57.5 µM; the (GR)10 concentration left at 10 min (LC/MS; 50 µM start) is 50.1 µM and 60.8 µM; the (GR)10 concentration left at 30 min (LC/MS; 50 µM start) is 57.8 µM and 65 µM. Besides, in series [1], the (GR)10 concentration left at 60 min (LC/MS; 50 µM start) was 54.2 µM and 71.5 µM; the (GR)10 concentration left at 120 min (LC/MS; 50 µM start) is 54.3 µM and 57.4 µM.
